Test results: PMC6991139 (ACS nano, 2019)

Experiments:
[1] = target: PP7-PP7 single-chain coat protein dimer particle (PP7 virus (Leviviridae)) (UniProt P03630); assay: cryo-EM structure
[2] = target: PP7-ZZ particle (ZZ-domains fused to the C-terminus of the PP7 CP) (PP7 virus (Leviviridae)); assay: SEC + other: dynamic light scattering + other: TEM
[3] = target: ZZ-PP7 particle (ZZ-domains added to the N-terminus of the PP7 CP) (PP7 virus (Leviviridae)); assay: cryo-EM structure
[4] = target: the molecule itself; assay: SEC + other: dynamic light scattering + other: TEM

**Q.** How did the stoichiometry N [1] turn out when “PP7-PP7 single-chain coat protein dimer particle (from UniProt P03630 1-128; P03630 1-128)” was run?
**A.** 120 copies

**Q.** How did the stoichiometry N [2] turn out when “PP7-ZZ particle (ZZ-domains fused to the C-terminus of the PP7 CP)” was run?
**A.** 180 per capsid

**Q.** “ZZ-PP7 particle (ZZ-domains added to the N-terminus of the PP7 CP)” was tested. Which stoichiometry N [3] did it give?
**A.** 180 per capsid

B1: wild-type PP7 virus-like particle (PP7 coat protein) (natural protein)
chain: MSKTIVLSVGEATRTLTEIQSTADRQIFEEKVGPLVGRLRLTASLRQNGAKTAYRVNLKLDQADVVDCSTSVCGELPKVRYTQVWSHDVTIVANSTEASRKSLYDLTKSLVATSQVEDLVVNLVPLGR
**Q.** Does B1 bind [4]?
**A.** binds
